Test results taken from the supplement of paper PMC10567573.

B1: TRAF3IP2 (parent)
chain: YGHDYPRAAYQQVIQPALPGQPLP
B2: INTS3 (parent)
chain: AQLQALRQKEVDFCISLLRERFME

Variants of: B1
Assay: protein stability index of a GFP-peptide fusion (GPS, HEK-293T) (PSI 1-6); higher = more stable
Conditions: c terminus: a fixed tail appended
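Also: lentivirally expressed fusions sorted by FACS into six bins by GFP to DsRed ratio, PSI derived from sequencing read proportions per bin multiplied by bin number.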

Protein stability index of substitutions, site by site:
R7: E 3.87 | Y 2.28 | S 2.65 | L 2.27 | P 2.41
A17: W 1.92 | M 1.95 | Y 1.83 | T 2.62 | R 1.74 | E 2 | L 3.12
A8: G 2.18 | S 1.93 | P 2.35 | V 2.59 | T 2.8 | K 2.14 | Q 2.65 | M 1.76 | N 2.3 | Y 2.24
V13: A 2.17 | P 2.52 | I 1.98 | N 2.09 | T 1.83 | C 2.04 | R 1.93 | E 1.74 | K 1.75 | F 2.38

Variants of: B2
Assay: as above
Conditions: c terminus: a fixed tail appended

Protein stability index, by site and new letter:
F22: E 2.16 | H 1.18 | P 1.67 | W 3.21 | D 2.24 | C 1.19 | T 1.97 | M 3.62 | Q 1.98 | K 1.92 | A 1.45 | G 1.17 | Y 2.21 | R 2.1 | N 1.69 | S 1.31
M23: S 1.42 | I 2.46 | D 1.95 | P 1.79 | R 2.91 | N 2.55 | A 2.78 | G 1.9 | H 1.96 | V 5.11 | E 1.46 | L 2.29 | T 1.85 | Q 1.03 | K 2.84
L17: K 2 | G 2.3 | E 2.06 | Q 2.45 | D 2.56 | W 2.46 | V 3.89 | N 2.1 | S 1.22 | F 1.9 | H 1.65 | R 2.08 | T 1.8 | P 2.16 | Y 2.51 | A 2.03
L18: E 2.57 | D 2.38 | R 2.2 | Q 3.04 | Y 3.92 | S 1.87 | T 2.24 | H 1.76 | G 3.07 | K 2.34 | C 1.02 | A 1.7 | F 3.16 | V 3.22 | P 2.04 | M 3.87 | N 1.97
R21: G 2.99 | E 2.1 | T 3.99 | C 2.58 | D 1.14 | M 2.09 | K 2.5 | N 2.7 | A 2.41 | L 2.34 | F 1.36 | W 2.68 | H 2.91
R19: N 3.64 | Y 2.94 | M 2.43 | F 1.87 | G 1.37 | P 2.21 | Q 2.74 | L 2.02 | S 3.43 | K 1.2 | D 1.57 | E 1
S16: P 2.14 | N 3.32 | D 2.09 | I 2.38 | C 3.15 | Y 3.56 | F 4.27 | R 3.39 | K 1.65 | M 4.38 | Q 3.15 | L 1.85 | E 3.24 | V 1.11 | G 3.67
I15: L 2.84 | S 1.67 | M 1.17 | Q 1.77 | P 2.07 | W 2.07 | Y 2.3 | N 2.46 | T 2.07 | R 1.71
E24: V 2.95 | M 4.47 | G 1.92 | T 1.77 | Q 1.4 | Y 2.66 | I 2.7 | R 3.34 | N 2.72 | P 1.31 | A 3.89
E20: I 3.04 | P 2.08 | G 3.34 | M 2.92 | R 2.49 | C 2.38 | S 5.14 | D 2.65 | L 2.34 | K 2.09
